Patent US20210403547A1

Biological target: membrane-bound ligands (TGF-alpha and Epiregulin) on HT-29 cells
Assay: cell-based or functional assay

- Mean Ringspot Total Intensity of Fluorescence (internalization into HT-29 cells), 40 ug/mL, 0 min post addition: 94
- Mean Ringspot Total Intensity of Fluorescence (internalization into HT-29 cells), 40 ug/mL, 5 min post addition: 116
- Mean Ringspot Total Intensity of Fluorescence (internalization into HT-29 cells), 40 ug/mL, 15 min post addition: 126
- Mean Ringspot Total Intensity of Fluorescence (internalization into HT-29 cells), 40 ug/mL, 30 min post addition: 124
- Mean Ringspot Total Intensity of Fluorescence (internalization into HT-29 cells), 40 ug/mL, 60 min post addition: 167
- Mean Ringspot Total Intensity of Fluorescence (internalization into HT-29 cells), 40 ug/mL, 120 min post addition: 177
- Mean Ringspot Total Intensity of Fluorescence (internalization into HT-29 cells), dose 0.34 ug/ml, 2 h at 37 C: 1410
- Mean Ringspot Total Intensity of Fluorescence (internalization into HT-29 cells), dose 0.69 ug/ml, 2 h at 37 C: 1480
- Mean Ringspot Total Intensity of Fluorescence (internalization into HT-29 cells), dose 1.38 ug/ml, 2 h at 37 C: 1470
- Mean Ringspot Total Intensity of Fluorescence (internalization into HT-29 cells), dose 2.75 ug/ml, 2 h at 37 C: 1570
- Mean Ringspot Total Intensity of Fluorescence (internalization into HT-29 cells), dose 5.5 ug/ml, 2 h at 37 C: 1360
- Mean Ringspot Total Intensity of Fluorescence (internalization into HT-29 cells), dose 11 ug/ml, 2 h at 37 C: 1390
- Mean Ringspot Total Intensity of Fluorescence (internalization into HT-29 cells), dose 22 ug/ml, 2 h at 37 C: 1760
- Mean Ringspot Total Intensity of Fluorescence (internalization into HT-29 cells), dose 44 ug/ml, 2 h at 37 C: 1810
- Mean Ringspot Total Intensity of Fluorescence (internalization into HT-29 cells), dose 88 ug/ml, 2 h at 37 C: 2440
Substance: Control IgG (antibody)
